Entries after “also recorded” stand apart in the source; their conditions may differ.
Experiments:
[1] = system: BMP-2-induced heterotopic ossification; assay: BMP-2-induced heterotopic ossification (HO) mouse model; type: in vivo, mice; conditions: for Heterotopic ossification (bone volume by μCT): after two weeks
Experimental: Male and female C57BL/6 mice are used for the HO model. The HO is triggered by injecting BMP-2 into the muscle (Wosczyna et al. 2012).
All the mice are fed with standard feed and water ad libitum and are kept in groups of five mice per cage. The mice are exposed to a 12-hour light/dark cycle and air cooling to 23° C. (no special pathogen-free room). Enrichment is provided in the form of cardboard houses and bedding material. The mice are randomly divided into the different treatment groups and the assays are subsequently carried out as blind experiments.
The HO is examined by means of treatment using 2.5 μl of a 1 mg/ml recombinant BMP-2 solution (Thermo Fisher Scientific) or 2.5 μl of a 1 mg/ml Tfr2-ECD mixed with 47.5 μl Matrigel (BD Bioscience) at 0° C. For combination treatment, 2.5 of a 1 mg/ml recombinant BMP-2 solution is mixed with 2.5 μl of a 1 mg/ml Tfr2-ECD and 45 μl Matrigel. The Matrigel mixtures are injected into the musculus tibialis anterior of 10-week-old female wild-type mice. The legs are examined after two weeks.
The bone microarchitecture is analyzed using vivaCT40 (Scanco Medical, Switzerland). The entire lower leg bones are measured at a resolution of 10.5 μm using X-rays of 70 kVp, […] and at an integration time of 200 s. Predefined scripts from Scanco are used to analyze the bone (#1).
Heterotopic ossification (HO): The HO model was performed according to Wosczyna et al^32. Briefly, 2.5 μl of 1 mg/ml recombinant BMP-2 (Thermo Fisher) or 2.5 μl of 1 mg/ml Tfr2-ECD were mixed with 47.5 μl matrigel (BD Bioscience) on ice. For the local combination treatment, 2.5 μl BMP-2 were mixed with 2.5 μl Tfr2-ECD and 45 μl matrigel. The matrigel-mixtures were injected into the midbelly of the tibialis anterior muscle of 10-week-old female WT and Tfr2-deficient mice. Some mice were treated daily with palovarotene through oral gavage using a previously published protocol^58. Palovarotene (Hycultec) was dissolved in DMSO and diluted 1:4 with corn oil. Mice received palovarotene at a dose of 100 μg/mouse for the first five days and 50 μg/mouse for the remainder of the experiment (days 6-14). Two weeks after BMP-2 injection, the legs were harvested for analysis. This experiment was performed three times with 3-11 mice per group. To analyze the chondrogenic phase of HO, we performed an experiment as described above that was terminated on day 8. This was performed once with 4-6 mice per group.
For systemic Tfr2-ECD treatment, WT mice were treated every other day with Tfr2-ECD intraperitoneally for two weeks. Mice received 250 μg Tfr2-ECD (10 mg/kg BW) per injection for the first 10 days after BMP-2/matrigel injection into the muscle and 125 μg per injection (5 mg/kg BW) for the remaining time. This experiment was performed once with 8-10 mice per group. Drop-weight HO: This experiment was performed according to Liu et al. with minor modifications^65. Female 10-12-week-old WT mice were anesthetized and placed on a ridge of a plastic container over which the right leg was bent so the femur was lying horizontally. Mice received an injection of 1 μg BMP-2 mixed in 50 μl matrigel. Afterwards, a stainless-steel ball of 16 g (16 mm diameter) was dropped from a distance of 80 cm height onto the quadriceps muscle. Mice either received a single dose of 1 μg Tfr2-ECD, which was co-injected with the BMP-2/matrigel mixture, or palovarotene (Hycultec), which was administered daily by oral gavage. Palovarotene was dissolved in DMSO and diluted 1:4 with corn oil. […]

[2] = target: T1, BMP-2 (Homo sapiens, UniProt P12643); assay: BMP-2 competitive ELISA; type: binding; conditions: 1.5 ng/ml BMP-2 with increasing concentrations of protein
T1 sequence (P12643 283-396): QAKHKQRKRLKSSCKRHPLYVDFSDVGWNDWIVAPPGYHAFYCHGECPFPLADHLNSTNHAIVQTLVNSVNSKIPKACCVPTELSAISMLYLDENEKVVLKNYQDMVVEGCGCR
Experimental: In order to carry out the BMP-2-competitive ELISA, the Duo Set BMP-2 ELISA kit by R&D Systems is used.
The Duo Set BMP-2 ELISA kit from R&D Systems was used. […] After 1 h incubation at RT and extensive washing, the detection antibody was added according to the manufacturer's protocol and the amount of BMP-2 was quantified. This experiment was performed at least three independent times.

[3] = WT mice, day 8, systemic treatment, Safranin O staining

B1: Tfr2-ECD: Recombinant full-length extracellular domain (aa 103-798) of murine Tfr2, His-tagged, expressed in Sf9 insect cells (protein, listed as Mus musculus)
chain: RGSCQACGDSVLVVDEDVNPEDSGRTTLYWSDLQAMFLRFLGEGRMEDTIRLTSLRERVAGSARMATLVQDILDKLSRQKLDHVWTDTHYVGLQFPDPAHANTLHWVDADGSVQEQLPLEDPEVYCPYSATGNATGKLVYAHYGRSEDLQDLKAKGVELAGSLLLVRVGITSFAQKVAVAQDFGAQGVLIYPDPSDFSQDPHKPGLSSHQAVYGHVHLGTGDPYTPGFPSFNQTQFPPVESSGLPSIPAQPISADIADQLLRKLTGPVAPQEWKGHLSGSPYRLGPGPDLRLVVNNHRVSTPISNIFACIEGFAEPDHYVVIGAQRDAWGPGAAKSAVGTAILLELVRTFSSMVSNGFRPRRSLLFISWDGGDFGSVGATEWLEGYLSVLHLKAVVYVSLDNSVLGDGKFHAKTSPLLVSLIENILKQVDSPNHSGQTLYEQVALTHPSWDAEVIQPLPMDSSAYSFTAFAGVPAVEFSFMEDDRVYPFLHTKEDTYENLHKMLRGRLPAVVQAVAQLAGQLLIRLSHDHLLPLDFGRYGDVVLRHIGNLNEFSGDLKERGLTLQWVYSARGDYIRAAEKLRKEIYSSERNDERLMRMYNVRIMRVEFYFLSQYVSPADSPFRHIFLGQGDHTLGALVDHLRMLRADGSGAASSRLTAGLGFQESRFRRQLALLTWTLQGAANALSGDVWNIDNNF
modifications: His tag
notes: Recombinant full-length extracellular domain (aa 103-798) of murine Tfr2, His-tagged, expressed in Sf9 insect cells
In the case of B1, the “Heterotopic ossification (bone volume by μCT)” value (“Heterotopic ossification” below) ([1]; Tfr2-/- mice, co-application of Tfr2-ECD with BMP-2) is reported as “significantly inhibited”, the “Number of chondrocytes (chondrogenic phase of HO)” value [1, 3] is reported as “suppressed” and the “Production of cartilage (chondrogenic phase of HO)” value [1, 3] is reported as “suppressed”. For the same molecule, the “Heterotopic ossification” value ([1]; WT mice, local Tfr2-ECD co-injected with BMP-2 into the muscle) was “significant reduction in bone formation; also recorded: completely abrogated; also recorded: reduced; also recorded: inhibited”, the “Heterotopic ossification” value ([1]; WT mice, systemic treatment, i.p. injections every other day) was “reduced; also recorded: inhibited” and the “BMP-2 binding: signal of the BMP-2 detection antibody” value [2] was “verified”. For the same molecule, the “BMP-2 binding: signal of the BMP-2 detection antibody” value ([2]; listed as protein according to the invention) was “signal of the BMP-2 detection antibody reduced”.
